These results are taken from paper PMC8906423.

Test [1] has as its target RBDA7-S chimera (H77c E2 RBD with 7 Cys-to-Ala mutations fused to the N terminus of DHBV S antigen) (hepatitis C virus genotype 1a, H77c | duck hepatitis B virus) (UniProt P27958). Put plainly: co-sedimentation + other: quantitative Western blot; gradient-purified VLP preparations; amount and proportion of E2 and S within VLPs quantified with Image Studio software; 4 consecutive preps.

Test [2] addresses Δ123A7-S chimera (H77c E2 Δ123 with 7 Cys-to-Ala mutations fused to the N terminus of DHBV S antigen) (hepatitis C virus genotype 1a, H77c | duck hepatitis B virus) (UniProt P27958). The description is as above.

Several values for one entry are separate records, joined by “and”; a condition that tells them apart may be missing. Equal values may be shown once.

As to “duck hepatitis B virus (DHBV) small surface antigen (S) (natural protein)”, in test [1], the stoichiometry N (mol S per mol RBDA7-S) is 4 and 10 and 7. The stoichiometry N (mol S per mol Δ123A7-S) in test [2] is 2 and 4.
